From patent US20170101442A1 (published 2017) come the findings set out here.

The target in one experiment is 515. In words: cell binding (labeled cells %); HSC-T6 cells; apparent Kd.
A further experiment concerns the target 422. The description is as above.

B1: HSC-T6 cells (receptor)
chain: QAVDLDALCSYTWEAVDSKNNAVYKINPCGHVDNPRCGPTSAVCMCDLKSENCRSVGDSLLRSSAKSLLEFNTTTGCQPSEHRIQTSITFLCGKTLGTPEFVTATDCVHYFEWRTTAACKKDIFKADKEVPCYVFDDKLQKHDLNPLIKLNGGYLVDDSDADASLFINVCRDIDSLRDPSTQLRVCPAGTAACLLKGNQAFDVGRPKEGLKLLSKDRLVLTYVKEEGEKPDFCNGHSPAVTVTFVCPSERREGTIPKLTAKSNCRYEVEWITEYACHRDYLESETCSLSSEQHDIAIDLSPLAQHEEGSPYVADGGEYRFFMNVCGDTKVSLCNKEAAVCQEKKVDSTQVKIAGRHQNQTLRYSDGDLTLIYSGGDECSSGFQRMSVINFECNKTAGQDGRGEPVFTGEVDCTYFFTWDTKYACVKEKEDLLCGAIDGKKRYDLSVLARHSESEQNWEAVDGSQAESEKRNFFINVCHRVLQAGKAKNCPEGAAVCAVDKSGSKNLGKFVSSPTKEKGHIQLSYSDGDDCGNDKKITTNITFVCKPGDLESAPVLRAAGPDGCSYEFEWHTAAACVLSQTEGENCTVLDAQAGFSFDLSLLTKKNGAYKVETDKYDFYINVCGPVSVNLCQSNSGACQVAKSGKSWNLGLSNTKLTYYDGMIQLSYRNGTLYNNEKHTPRSTLITFLCDRDAGVGFPEYQEEDNSTYNFRWYTSYACPEEPLECMVTDPSMMEQYDLSSLVKFEGGRGGNWYAMENSREHFTRRKYYLNVCRPLNPVPGCDRYASACQMKYENNEGSLAETVAISNLGVAKTGPVVEESGSLLLEYVNGSACTTSDGRLTTYSTRIHLVCGRGTMNSHPIFTFNWECVVSFLWNTEAACPIQTITDSDQACSIRDPNSGFVFNLSPLNYSQGHMVLGIGKTFVFNICGTMPACGTVAGKPALGCEAETKIKDIKDLKPERPVGMEKSLQLSAEGFLTLTYKGSSPSDRGTAFIIRFICNGDIYPGTPKFLHQDIDSARGIRNTFFEFETALACIPSVVDCQVTDPAGNEYDLSALSMVRKPWTAVDTSVHGKKRRFYLSVCTPLPYIPGCDGIAMGSCMVSEDKSQNLGVVQISPQATGNGSLSILYVNGDRCGNQRYSTRIVFECAQTSGSPMFQLLNNCEYVFVWRTVEACPVVREEGDNCQVKDPRHGNLYDLKPLALNDTIISAGEYTYYFRVCGKLSLDVCSAHDGSKAVSSCQEKKGPQGFQKVAGLLNQKLTFENGLLKMNYSGGDTCHKVYQRSTTIYFYCDRTTQKPVFLKETLDCSYLFEWRTQYACPPFNVTECSIQDEAGNSIDLSSLSRYSDNWEAVTRTGATEHYLINVCKSLSPQAGTDPCPPEAAVCLLDGSKPVNLGRVRDGPQWTAGVTVLKYVDGDLCPDKIRKRSTIIRFTCSDSQVNSRPLFISAVQDCEYTFSWPTPAACPVKSNIHDDCQVTNPSTGHLFDLSSLSGKAGITASYSEKGMVFMSICEENVNCSPGVGACFGQTRISVGQASKRLSYKDQVLQLVYENGSPCPSKSGLRYKSVISFVCRPEAGPTNRPMLISLDKQSCTLFFSWHTPLACEQATECTVRNGSSIIDLSPLIHRTGGYEAYDESEDDTSDTTPDFYINICQPLNPMHGVPCPAGASVCKVPVDGPPIDIGRVTGPPIFNPVANEVYLNFESSTPCLADKYMNYTSLIAFHCRRGISMVTRDAHTYSIGVCTTAADLDQEGCKDGGVCLLSGSKGASFGRLASMQLDYRHQDEAVILSYVNGDPCPPETEDGEPCVFPFIYKGETYDECVLEGRAKLWCSKTANYDRDHEWGFCRPSTLSICAKEYIKVPWTALREPAFARRVPLVKSRFWGLFILKNWKS
B1: the Kd came to 57.6 µM with 515 and 402 µM with 422.
